Assay results as given in patent US20230220042A1 (SHANGHAI JIAO TONG UNIVERSITY SCHOOL OF MEDICINE, published 2023).
Changes are numbered by the printed parent chain. Names may count otherwise.

T1: Biotin-FcγRIIB (human, UniProt P31994 43-217, limits assumed, biotin-labelled)
T1 construct: Bought, biotin-labelled; used at 1 µg/ml for staining and sorting; also called human FcγRIIB; CD32b
T1 sequence (looked up): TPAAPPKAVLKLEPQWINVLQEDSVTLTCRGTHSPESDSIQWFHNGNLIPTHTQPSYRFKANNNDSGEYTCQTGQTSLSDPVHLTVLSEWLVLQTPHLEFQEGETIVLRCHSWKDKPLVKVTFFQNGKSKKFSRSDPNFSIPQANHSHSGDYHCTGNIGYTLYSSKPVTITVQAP

T2: Biotin-FcγRIIB (human, UniProt P31994 43-217, limits assumed, biotin label)
T2 construct: Soluble labelled protein used to stain and sort the display cells; also called human FcγRIIB; CD32b
T2 sequence (looked up): T1 sequence (looked up)

B1: human IgG2 anti-mouse CD40 surface displayed antibody, Fc mutant P271L (antibody, name in EU numbering)
light chain (with the P2A rest): DTVLTQSPALAVSPGERVTISCRASDSVSTLMHWYQQKPGQQPKLLIYLASHLESGVPARFSGSGSGTDFTLTIDPVEADDTATYYCQQSWNDPWTFGGGTKLELKRTVAAPSVFIFPPSDEQLKSGTASVVCLLNNFYPREAKVQWKVDNALQSGNSQESVTEQDSKDSTYSLSSTLTLSKADYEKHKVYACEVTHQGLSSPVTKSFNRGECGSGATNFSLLKQAGDVEENPG
heavy chain: EVQLVESDGGLVQPGRSLKLPCAASGFTFSDYYMAWVRQAPTKGLEWVASISYDGSSTYYRDSVKGRFTISRDNAKSTLYLQMDSLRSEDTATYYCGRHSSYFDYWGQGVMVTVSSASTKGPSVFPLAPCSRSTSESTAALGCLVKDYFPEPVTVSWNSGALTSGVHTFPAVLQSSGLYSLSSVVTVPSSNFGTQTYTCNVDHKPSNTKVDKTVERKCCVECPPCPAPPVAGPSVFLFPPKPKDTLMISRTPEVTCVVVDVSHEDLEVQFNWYVDGVEVHNAKTKPREEQFNSTFRVVSVLTVVHQDWLNGKEYKCKVSNKGLPAPIEKTISKTKGQPREPQVYTLPPSREEMTKNQVSLTCLVKGFYPSDIAVEWESNGQPENNYKTTPPMLDSDGSFFLYSKLTVDKSRWQQGNVFSCSVMHEALHNHYTQKSLSLSPGKLEPPPSTVSNMATVAVLVVLGAAIVTGAVVAFVMKMRRRNTGGKGGDYALAPGSQTSDLSLPDCKVMVHDPHSLA
notes: as m1; positions are Eu numbers; copies: 2 + 2
B2: human IgG2 anti-mouse CD40 surface displayed antibody, Fc mutant S267W (antibody, name in EU numbering)
light chain (with the P2A rest): B1 light chain (with the P2A rest)
heavy chain: B1 heavy chain with S262W, L266P
notes: as for B1
B3: human IgG2 anti-mouse CD40 surface displayed antibody, Fc mutant P271V (antibody, name in EU numbering)
light chain (with the P2A rest): B1 light chain (with the P2A rest)
heavy chain: B1 heavy chain with L266V
notes: as for B1
B4: human IgG2 anti-mouse CD40 surface displayed antibody, Fc mutant P271A (antibody, name in EU numbering)
light chain (with the P2A rest): B1 light chain (with the P2A rest)
heavy chain: B1 heavy chain with L266A
notes: as for B1
B5: human IgG2 anti-mouse CD40 surface displayed antibody, Fc mutant P271I (antibody, name in EU numbering)
light chain (with the P2A rest): B1 light chain (with the P2A rest)
heavy chain: B1 heavy chain with L266I
notes: as for B1
B6: human IgG2 anti-mouse CD40 surface displayed antibody, Fc mutant S267N (antibody, name in EU numbering)
light chain (with the P2A rest): B1 light chain (with the P2A rest)
heavy chain: B1 heavy chain with S262N, L266P
notes: as for B1
B7: human IgG2 anti-mouse CD40 surface displayed antibody, Fc mutant H268N (antibody, name in EU numbering)
light chain (with the P2A rest): B1 light chain (with the P2A rest)
heavy chain: B1 heavy chain with H263N, L266P
notes: as for B1
B8: human IgG2 anti-mouse CD40 surface displayed antibody, Fc mutant P271S (antibody, name in EU numbering)
light chain (with the P2A rest): B1 light chain (with the P2A rest)
heavy chain: B1 heavy chain with L266S
notes: as for B1
B9: human IgG2 anti-mouse CD40 surface displayed antibody, Fc mutant P271G (antibody, name in EU numbering)
light chain (with the P2A rest): B1 light chain (with the P2A rest)
heavy chain: B1 heavy chain with L266G
notes: as for B1
B10: human IgG2 anti-mouse CD40 surface displayed antibody, Fc mutant S267E (antibody, name in EU numbering)
light chain (with the P2A rest): B1 light chain (with the P2A rest)
heavy chain: B1 heavy chain with S262E, L266P
notes: as for B1
B11: human IgG2 anti-mouse CD40 surface displayed antibody, S267E/S298G (antibody, name in EU numbering)
light chain (with the P2A rest): B1 light chain (with the P2A rest)
heavy chain: B1 heavy chain with S262E, L266P, S293G
notes: As m1 with the Fc mutations
B12: human IgG2 anti-mouse CD40 surface displayed antibody, L328W (antibody, name in EU numbering)
light chain (with the P2A rest): B1 light chain (with the P2A rest)
heavy chain: B1 heavy chain with L266P, L323W
notes: As m1 with the Fc mutation
B13: human IgG2 anti-mouse CD40 surface displayed antibody, P233G/S267E (antibody)
light chain (with the P2A rest): B1 light chain (with the P2A rest)
heavy: B1 heavy chain with P229G, S262E, L266P
notes: As m1 with the Fc mutations; copies: 2 + 2
B14: human IgG2 anti-mouse CD40 surface displayed antibody, Fc mutant L328W (antibody, name in EU numbering)
light chain (with the P2A rest): B1 light chain (with the P2A rest)
heavy chain: B1 heavy chain with L266P, L323W
notes: as for B1
B15: human IgG2 anti-mouse CD40 surface displayed antibody, Fc mutant L328P (antibody, name in EU numbering)
light chain (with the P2A rest): B1 light chain (with the P2A rest)
heavy chain: B1 heavy chain with L266P, L323P
notes: as for B1
B16: human IgG2 anti-mouse CD40 surface displayed antibody, Fc mutant P238Q/S267E (antibody, name in EU numbering)
light chain (with the P2A rest): B1 light chain (with the P2A rest)
heavy chain: B1 heavy chain with P233Q, S262E, L266P
notes: as for B1
B17: human IgG2 anti-mouse CD40 surface displayed antibody, Fc mutant S267E/P329R (antibody, name in EU numbering)
light chain (with the P2A rest): B1 light chain (with the P2A rest)
heavy chain: B1 heavy chain with S262E, L266P, P324R
notes: as for B1
B18: human IgG2 anti-mouse CD40 surface displayed antibody, Fc mutant P271G/I332L (antibody, name in EU numbering)
light chain (with the P2A rest): B1 light chain (with the P2A rest)
heavy chain: B1 heavy chain with L266G, I327L
notes: as for B1
B19: human IgG2 anti-mouse CD40 surface displayed antibody, Fc mutant L328A (antibody, name in EU numbering)
light chain (with the P2A rest): B1 light chain (with the P2A rest)
heavy chain: B1 heavy chain with L266P, L323A
notes: as for B1

target: T1, Biotin-FcγRIIB; assay: magnetic sorting on biotin-FcγRIIB with unlabelled activating FcγRs, NGS; Library2
Description: (§1) 3T3 cells were collected by trypsin digestion, and a single cell suspension was prepared. […] The cells were incubated for 15 minutes on ice and then washed twice with MACS buffer and re-suspended in 100 μl MACS buffer. Twenty-five μl anti-Biotin magnetic beads were added, and the cells were incubated for 15 minutes on ice and then washed once with MACS buffer and re-suspended to 500 μl, and added to the LS column put in the magnetic field. The effluent was collected, washed with 3 mL of MACS buffer and collected; The LS column was then removed out of the magnetic field, and 5 mL of MACS buffer was used to rapidly elute the remaining cells from the sorting column to collect positive cells, which are the high I/A ratio cells.
(§2) The high-FcγRIIB-affinity cells obtained from the above flow cytometry sorting are further sorted by magnetic-activated sorting. The cells are incubated with the mixture of Biotin-labeled FcγRIIB and non-labeled activating FcγRs, and then the labeled cells are sorted by anti-Biotin magnetic beads. The enrichment ratios after sorting relative to before sorting are analyzed by NGS.

| Binder | Enrichment factor (percentage after sorting/percentage before sorting) | Increased factor (mutation enrichment factor/wild-type enrichment factor) | Percentage after sorting/unbinding percentage | Percentage before sorting/unbinding percentage |
| --- | --- | --- | --- | --- |
| B1 | 4.43 | 5.34 | 143 | 32.3 |
| B2 | 1.86 | 2.25 | 52.5 | 28.2 |
| B3 | 3.52 | 4.24 | 1090 | 311 |
| B4 | 2.77 | 3.33 | 71.2 | 25.7 |
| B5 | 2.63 | 3.17 |  |  |
| B6 | 2.91 | 3.51 |  |  |
| B7 | 2.31 | 2.79 | 662 | 286 |
| B8 | 2.74 | 3.3 | 22.2 | 8.1 |

target: T1, Biotin-FcγRIIB; assay: FACS sorting of displayed Fc library on biotin-FcγRIIB, NGS

| Binder | Increased factor b Site 1 (point mutation/wild-type) | Increased factor b Site 2 (point mutation/wild-type) |
| --- | --- | --- |
| B9 | 4.7 | 4.7 |
| B3 |  | 0.7 |
| B4 | 0.1 |  |
| B10 | 28.5 |  |

target: T2, Biotin-FcγRIIB; assay: NGS of 3T3 display library IgG2_C01 flow-sorted for FcγRIIB binding
Description: Then flow cytometry is used for sorting the cells with high affinity to FcγRIIB for two to three rounds. […] IgG2_C01 is a combined mutation (Type I) library having at most 1 mutation in each of the four regions of P233-V240, V266-P271, S298-T299, and G327-I332; IgG2_C02 is a cell library made by combining the combined mutation (Type II) libraries of four regions of P233-V240, V266-P271, S298-T299 and G327-I332 together and transferring it into 3T3 cells.

| Binder | enrichment factor, percentage after 1st sorting/percentage before sorting [ratio] | enrichment factor, percentage after 2nd sorting/percentage after 1st sorting [ratio] | enrichment factor, percentage after 2nd sorting/percentage before sorting [ratio] | increased factor, mutant enrichment factor/wild-type enrichment factor [ratio] | percentage after 1st sorting [%] | percentage after 2nd sorting [%] |
| --- | --- | --- | --- | --- | --- | --- |
| B11 | 9.16 | 19.2 | 176 | 207 | 0.01 | 0.25 |
| B12 | 1.75 | 4.26 | 7.46 | 8.78 | 0.25 | 1.05 |
| B13 | 3.31 | 5.47 | 18.1 | 21.3 | 0.01 | 0.05 |

target: T1, Biotin-FcγRIIB; assay: magnetic sorting on biotin-FcγRIIB with unlabelled activating FcγRs, NGS; LibraryMix #4
Description: as §1, §2

| Binder | Enrichment factor (percentage after sorting/percentage before sorting) | Increased factor (mutation enrichment factor/wild-type enrichment factor) | Percentage after sorting/unbinding percentage | Percentage before sorting/unbinding percentage |
| --- | --- | --- | --- | --- |
| B9 | 3.66 | 3.89 | 19 | 5.18 |
| B14 | 4.26 | 4.53 |  |  |
| B15 | 2.16 | 2.3 | 29.6 | 13.7 |
| B16 | 3.7 | 3.93 | 4.36 | 1.18 |
| B17 | 4.85 | 5.16 | 6.17 | 1.27 |
| B18 | 2.82 | 3 | 16 | 5.66 |
| B10 | 2.86 | 3.04 | 52.6 | 18.4 |
| B19 | 3.21 | 3.41 |  |  |
